Laboratory results reported in article PMC5339904.

Columns and labels:
[1] = biological target: GpA0 G83I; assay: BLaTM 1.2 (split β-lactamase complementation, ampicillin resistance); details: E. coli JM83, 133 μM arabinose, n = 3, read off a plot
[2] = biological target: quiescin sulfhydryl oxidase 2 transmembrane domain S8A mutant, in BLaTM hybrid proteins; assay: BLaTM 1.1 (split β-lactamase complementation, ampicillin resistance); details: E. coli BL21; n = 4 separate transformations; parent: est. 80 µg/ml; read off a plot
[3] = biological target: GCN4 leucine zipper fused to the β-lactamase fragments N-BLa and C-BLa; assay: split reporter (BiFC, NanoBiT); split β-lactamase; soluble N-BLa and C-BLa fusions co-expressed in the E. coli periplasm; read-out: ampicillin LD50 in liquid media by optical density
[4] = biological target: glycophorin A transmembrane domain G83I mutant, frame GpA+1, in BLaTM hybrid proteins; assay: BLaTM 1.1 (split β-lactamase complementation, ampicillin resistance); details: E. coli BL21; n = 4 separate transformations; parent: est. 160 µg/ml; read off a plot
[5] = biological target: glycophorin A transmembrane domain G83I mutant, frame GpA+1, in BLaTM hybrid proteins; assay: BLaTM 1.2 (split β-lactamase complementation, ampicillin resistance); details: E. coli JM83, 133 μM arabinose, n = 3, read off a plot
[6] = biological target: glycophorin A transmembrane domain G83I mutant, frame GpA+1, in BLaTM hybrid proteins; assay: split reporter (BiFC, NanoBiT); BLaTM 1.2 (ompA signal) in E. coli JM83; 133 μM arabinose plus 0.3 mM IPTG; ampicillin LD50 given relative to wild-type GpA+1 (=100%); library pairs first selected on ampicillin, then measured one by one; labels are N-BLa/C-BLa

GCN4 leucine zipper fused to the β-lactamase fragments N-BLa and C-BLa, sequence (P03069 whole entry, the tested form may be a part): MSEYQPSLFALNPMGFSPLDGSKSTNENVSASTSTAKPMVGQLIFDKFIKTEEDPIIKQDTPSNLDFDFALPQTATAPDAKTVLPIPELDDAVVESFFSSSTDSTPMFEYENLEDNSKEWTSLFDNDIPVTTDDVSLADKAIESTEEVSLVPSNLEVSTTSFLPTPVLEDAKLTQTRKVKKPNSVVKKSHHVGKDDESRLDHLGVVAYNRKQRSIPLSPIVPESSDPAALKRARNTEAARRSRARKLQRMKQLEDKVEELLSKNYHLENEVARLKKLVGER

For GpA0 wt G83I, the other: LD50 c(Amp) ([1]; 0.1 mM IPTG, parent: est. 230 µg/ml) was 150 µg/mL, the other: LD50 c(Amp) ([1]; 0.2 mM IPTG, parent: est. 99 µg/ml) was 73 µg/mL and the other: LD50 c(Amp) ([1]; 0.3 mM IPTG, parent: est. 80 µg/ml) was 52 µg/mL. It also gave an other: LD50 c(Amp) ([1]; 0.4 mM IPTG, parent: est. 61 µg/ml) of 38 µg/mL and an other: LD50 c(Amp) ([1]; 0.7 mM IPTG, parent: est. 30 µg/ml) of 24 µg/mL.
Work on “quiescin sulfhydryl oxidase 2 transmembrane domain, wild type, in BLaTM hybrid proteins S8A” yielded an other: LD50 c(Amp) [2] of 38 µg/mL.
“GCN4 leucine zipper fused to the β-lactamase fragments N-BLa and C-BLa” gave a fold rise of the ampicillin LD50 on co-expression of both fragments [3] of 40 fold.
“glycophorin A transmembrane domain, wild type, frame GpA+1, in BLaTM hybrid proteins G83I” showed an other: LD50 c(Amp) [4] of 16 µg/mL, an other: LD50 c(Amp) ([5]; 0.1 mM IPTG) of 120 µg/mL and an other: LD50 c(Amp) ([5]; 0.2 mM IPTG) of 70 µg/mL. For the same substance, the other: LD50 c(Amp) ([5]; 0.3 mM IPTG, parent: est. 270 µg/ml) was 65 µg/mL, the other: LD50 c(Amp) ([5]; 0.4 mM IPTG, parent: est. 140 µg/ml) was 43 µg/mL and the other: LD50 c(Amp) ([5]; 0.5 mM IPTG, parent: est. 100 µg/ml) was 32 µg/mL. The other: LD50 c(Amp) ([5]; 0.7 mM IPTG, parent: est. 62 µg/ml) was 27 µg/mL.
Substance “glycophorin A transmembrane domain G83I mutant, frame GpA+1, in BLaTM hybrid proteins (domain or fragment)” has an LD50 in % of GpA+1 wt (% (GpA+1 wt = 100%)) [6] of 29.
